In US20260132208A1 (DOMAIN THERAPEUTICS, published 2026):
Where “and” joins values, the source holds several entries; their conditions need not be identical. Equal values may be shown once.

Assays:
human CCR8 [1] = target: T1, human CCR8 (human, UniProt P51685 1-355); assay: cell-based or functional assay
human CCR8 [2] = target: T1, human CCR8; assay: flow cytometry, human activated T cells (endogenous CCR8)
Description: (§1) In human activated T cells model, prior to mAb incubation, cells were first incubated with 200 nM of hCCL1 (R&D Systems, Minneapolis, MN, USA) or buffer PBS (Invitrogen by Thermofisher Scientific, Illkirch-Graffenstaden, France) supplemented by 2% Fetal Bovine Serum (Invitrogen by Thermofisher Scientific, Illkirch-Graffenstaden, France) and 2 mM EDTA (Invitrogen by Thermofisher Scientific, Illkirch-Graffenstaden, France) during 1 hour at 4° C. To determine EC50 value, 8 concentrations of anti-CCR8 mAb were tested. Unbound antibodies were washed away with PBS (Invitrogen by Thermofisher Scientific, Illkirch-Graffenstaden, France) supplemented by 2% Fetal Bovine Serum (Invitrogen by Thermofisher Scientific, Illkirch-Graffenstaden, France) and 2 mM EDTA (Invitrogen by Thermofisher Scientific, Illkirch-Graffenstaden, France). Subsequently, cells are centrifuged (5 min at 400 g) and bound antibody is detected with F(ab′)2-Goat anti-Mouse IgG (H+L) Cross-Adsorbed Secondary Antibody, Alexa Fluor 488 (dilution 1/500) (Invitrogen by Thermofisher Scientific, Illkirch-Graffenstaden, France) or with F(ab′)₂-Goat anti-Human IgG Fc Secondary Antibody, PE (Invitrogen by Thermofisher Scientific, Illkirch-Graffenstaden, France) (dilution 1/1000) at 4° C. for 30 min. Detection reagent is washed away and cells are centrifuged (5 min at 400 g) and resuspended in 30 μL PBS. Bound detection antibody is quantified on a MacsQuant16 (Miltenyi, Gladbach, Germany) (B1 or B2 channel, 5000 events per acquisition). During the experiment, the respective isotype mAb controls (mouse IgG1, mouse IgG2a, mouse IgG2b, mouse IgG3 or human IgG1) (Biolegend, Amsterdam, The Netherlands) are included to exclude any unspecific binding events. EC50 values were determined via nonlinear fit “log (agonist) vs.response—Variable slope (four parameters)” function of Graphpad prism. EC50 values were not constantly determined in the same experiments.
Binding characteristics of anti-CCR8 mAb cellular reactivity was further investigated by testing their binding to activated T cells.

human CCR8 [3] = target: T1, human CCR8; assay: flow cytometry, human activated T cells pre-saturated with 200 nM hCCL1
Description: Unbound antibodies were washed away with PBS (Invitrogen by Thermofisher Scientific, Illkirch-Graffenstaden, France) supplemented by 2% Fetal Bovine Serum (Invitrogen by Thermofisher Scientific, Illkirch-Graffenstaden, France) and 2 mM EDTA (Invitrogen by Thermofisher Scientific, Illkirch-Graffenstaden, France). Subsequently, cells are centrifuged (5 min at 400 g) and bound antibody is detected with F(ab′)2-Goat anti-Mouse IgG (H+L) Cross-Adsorbed Secondary Antibody, Alexa Fluor 488 (dilution 1/500) (Invitrogen by Thermofisher Scientific, Illkirch-Graffenstaden, France) or with F(ab′)₂-Goat anti-Human IgG Fc Secondary Antibody, PE (Invitrogen by Thermofisher Scientific, Illkirch-Graffenstaden, France) (dilution 1/1000) at 4° C. for 30 min. Detection reagent is washed away and cells are centrifuged (5 min at 400 g) and resuspended in 30 μL PBS. Bound detection antibody is quantified on a MacsQuant16 (Miltenyi, Gladbach, Germany) (B1 or B2 channel, 5000 events per acquisition). During the experiment, the respective isotype mAb controls (mouse IgG1, mouse IgG2a, mouse IgG2b, mouse IgG3 or human IgG1) (Biolegend, Amsterdam, The Netherlands) are included to exclude any unspecific binding events. EC50 values were determined via nonlinear fit “log (agonist) vs.response—Variable slope (four parameters)” function of Graphpad prism. EC50 values were not constantly determined in the same experiments.
Binding characteristics of anti-CCR8 mAb cellular reactivity was further investigated by testing their binding to activated T cells. […] For some anti-CCR8 antibodies, their binding on hCCR8 from human activated T cells was tested after a pre-saturation with 200 nM of hCCL1.

human CCR8 [4] = target: T1, human CCR8; assay: cell-based or functional assay; remark: listed apart in the source
[5] = target: T2, human CCR8 with a SNAP-tag at the N-terminus (human, UniProt P51685 1-355, SNAP-tag labelled covalently with Lumi4-Terbium); assay: HTRF Tag-lite, inhibition of hCCL1-AF647 binding to SNAP-hCCR8 on HEK-293 cells
T2 construct: also called hCCR8 SNAP-tag; CCR8 SNAP-tag

human CCR8 [6] = target: T1, human CCR8; assay: cell-based or functional assay; remark: listed apart in the source
human CCR8 [7] = target: T1, human CCR8; assay: flow cytometry, HUT78 cells (endogenous CCR8)
Description: as §1
Anti-CCR8 mAb cellular reactivity was also evaluated on native human CCR8 from HUT78 cell line by flow cytometry. In Table 4.3, Mean Fluorescence Intensity (Fold change to isotype control), the percentage of labelled cells and EC50 in nM of some anti-CCR8 antibodies are presented.

IC50 of CCL1-induced hCCR8 Gi2 signaling (BRET, HEK-293) (human CCR8 [1])	% of labelled cells (human CCR8 [2]) [%]	% of labelled cells (human CCR8 [3]) [%]	residual hCCL1 (100 nM) Gi2 response, protocol #2, mAb 0.08 µg/mL (human CCR8 [4]) [%]	residual hCCL1 (100 nM) Gi2 response, protocol #2, mAb 0.4 µg/mL (human CCR8 [4]) [%]	residual hCCL1 (100 nM) Gi2 response, protocol #2, mAb 10 µg/mL (human CCR8 [4]) [%]	residual hCCL1 (100 nM) Gi2 response, protocol #3, mAb 0.05 µg/mL (human CCR8 [4]) [%]	residual hCCL1 (100 nM) Gi2 response, protocol #3, mAb 0.5 µg/mL (human CCR8 [4]) [%]	residual hCCL1 (100 nM) Gi2 response, protocol #3, mAb 5 µg/mL (human CCR8 [4]) [%]	IC50 [5] [µg/mL]	Ki [5]	extrapolated top plateau of hCCL1 curve with 5 µg/mL mAb, protocol #3 (human CCR8 [6])	% of labelled cells (human CCR8 [7]) [%]	Binder
0.029 µg/mL and 0.194 nM	79	64	62	38	30	94	63	39	0.09	0.05 µg/mL	517000 % of hCCL1 (100 nM)	23	anti-CCR8 mAb 1-20 (antibody, human IgG1, kappa, Humanized mAb, human IgG1 / kappa) heavy: not shown light: DIVMTQAAPSLSVTPGESASISCTSSKSLLHSNGNTYLYWFLQKPGQSPQLLIYRMSNLASGVPDRFSGSGSGTAFTLKISRVEAEDVGVYYCMQHREYPFTFGSGTKLEIKRTVAAPSVFIFPPSDEQLKSGTASVVCLLNNFYPREAKVQWKVDNALQSGNSQESVTEQDSKDSTYSLSSTLTLSKADYEKHKVYACEVTHQGLSSPVTKSFNRGEC
0.068 µg/mL and 0.452 nM	92	92	94	77	31	110	76	33	0.15	0.08 µg/mL and 0.5 nM	76400 % of hCCL1 (100 nM)	97	anti-CCR8 mAb 1-22 (antibody, human IgG1, kappa, V domains shown, Humanized mAb, human IgG1 / kappa) VH: EVQLLESGGGLVQPGGSLRLSCAASGFTFNAYAMNWVRQAPGKGLEWVARIRSKSNDYATYYGDSVKGRFTISRDNSKNTLYLQMNSLRAEDTAVYYCVRGREAYYRYDGGYYAMDVWGQGTTVTVSS VL: DIVMTQSPLSLPVTPGEPASISCRSSKSLLHSNGNTYLYWFLQKPGQSPQLLIYRVSNLASGVPDRFSGSGSGTDFTLKISRVEAEDVGVYYCMQHREYPFTFGQGTKLEIKR
0.02 µg/mL and 0.134 nM	63	54	–	–	–	–	–	–	0.02	0.01 µg/mL and 0.07 nM	–	93	anti-CCR8 mAb 1-25 (antibody, human IgG1, kappa, V domains shown, Humanized mAb, human IgG1 / kappa) VH: QVQLVESGGGVVQPGRSLRLSCAASGFTFSNYRMHWVRQAPGKGLEWIAVIKVKSDNYGANYADSVKGRFTISRDNSKNTLYLQMNSLRAEDTAVYYCSSPTYPGSSGFAYWGQGTLVTVSS VL: DIQMTQSPSSLSASVGDRVTITCRASQDISNYLNWYQQKPDGTVKLLIYYTSRLHTGVPSRFSGSGSGTDYTLTISNLQQEDIATYFCQQGNKFPPTFGGGTKVEINR
